For ten variants, screen value results are on record in article PMC9859039, “The conserved centrosomin motif, γTuNA, forms a dimer that directly activates microtubule nucleation by the γ-tubulin ring complex (γTuRC)” (eLife, 2022).

Sequences and labels used below:
B1: Strep-His-TEV-HaloTag-3C-human γTuNA (human CDK5RAP2 aa 53–98), wildtype [human] / itself (parent)
chain: SPTRARNMKDFENQITELKKENFNLKLRIYFLEERMQQEFHGPTEH
B2: Strep-His-TEV-HaloTag-3C-Xenopus γTuNA (Xenopus Cdk5rap2 aa 56–101), wildtype [Xenopus laevis] / itself (parent)
chain: MKDFEKQIAELKKENFNLKLRIYFLEEQVQQKCDNSSEDLYRMNIE

One assay covers variants of B1. Kind of assay: size-exclusion chromatography (self-association / dimerization). As to conditions: with itself; 50 µM (monomer); Superdex 200 increase 10/300 GL; read off a plot.
Consider chain 1 I15A L18A, for which the screen value worked out at 15.1 mL.

On to chain 1 I15D L18D, for which the screen value was 15.1 mL.

Still in this assay, the particulars now being: with itself; 50 µM (monomer); Superdex 200 increase 10/300 GL; main peak, a minor peak near 13.1 mL is also drawn; read off a plot.
For chain 1 F11A I15A L18A L25A, the screen value was found to be 15 mL.

The same assay, now with this note: with itself; 50 µM (monomer); Superdex 200 increase 10/300 GL; main peak, a minor peak near 12.9 mL is also drawn; read off a plot.
In the case of chain 1 F11D I15D L18D, the screen value is 15.1 mL.

In another assay the parent is B2. The description is as above. The settings on record: with itself; 50 µM (monomer); Superdex 200 increase 10/300 GL; read off a plot.
For chain 1 I8D L11D, the screen value was 15 mL.

For chain 1 I8A, the screen value was 13.5 mL.

Consider chain 1 F16A, for which the screen value stood at 13.3 mL.

Consider chain 1 L18A, for which the screen value was determined as 14.2 mL.

Consider chain 1 F4A, for which the screen value stood at 13.4 mL.

Regarding chain 1 L11A, the screen value amounted to 14 mL.

The assay is the same for the next values; noted with them: with itself; 50 µM (monomer); Superdex 200 increase 10/300 GL; main peak, a minor shoulder near 13.2 mL is also drawn; read off a plot.
In the case of chain 1 L18A, the screen value was 14.2 mL.
